Experimental findings from patent US20250325630A1, “HOMODIMER FUSION PROTEINS FOR TREATING ATOPIC DERMATITIS” (Intervet Inc., priority 2021, published 2025) are described below.

The Kd is the constant that tells how readily two partners part at equilibrium. The koff is the first-order rate constant of dissociation. Read a low koff as a long-lived complex. As usually defined, the kon is a measure of how fast the partners come together.

Changes are numbered by the printed parent chain.

The target of experiment [1] is T1, canine IL-4 (canine, UniProt O77762 25-132, biotin-labeled in the Octet assay (site not stated)).
T1 sequence (looked up): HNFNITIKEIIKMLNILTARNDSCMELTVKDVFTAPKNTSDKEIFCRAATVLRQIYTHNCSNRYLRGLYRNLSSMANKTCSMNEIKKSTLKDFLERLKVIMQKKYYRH
The experiment in a line: cell-based or functional assay.

The target in experiment [2] is T1, canine IL-4. The experiment in a line: BLI (Octet); summary table, rounded from Table 3.
In experiment [3] the target is T1, canine IL-4. Briefly: BLI (Octet HTX), biotin-cIL-4 on SA biosensors, fusion protein in solution, 1:1 fit. The procedure: (§1) The binding constants for the cFc fusion proteins provided in Tables 3 and 4 below, were determined using OCTET® HTX. All kinetics measurements were performed by OCTET® HTX using SA® biosensors and DATA ACQUISITION® 12.0 software. 10 μg/mL of biotin-labeled antigen, either canine IL-4 (cIL-4) or canine IL-13 (cIL-13) were loaded onto the SAR biosensors for 120 seconds. Next, the biosensors were placed into 1×pH 7.0 TBS/Casein buffer for 60 seconds for the blocking phase. For the association phase, antigen loaded biosensors were placed into 2-fold serial dilutions from 1 μM down to 15.6 nM of the wild-type, the bispecific, or the FcRn-mutant receptor Fc-fusions that recognized the cIL-4 or cIL-13 antigen in 1×pH 7.0 TBS/Casein buffer for 30 seconds. The last well was buffer alone and that sensor was used for reference sensor subtraction. Finally, the biosensors were placed into 1×pH 7.0 TBS/Casein buffer for 120 seconds for the dissociation phase. The results were then analyzed using Data Analysis 12.0 software and the curves were fitted using a 1:1 binding model.
For orientation: BLI is a label-free optical method that tracks binding on a fibre tip over time.

For experiment [4], the target named is T1, canine IL-4. Briefly: cell-based or functional assay. This is another data set of the same source.
Experiment [5] concerns the target T1, canine IL-4. The experiment in a line: BLI (Octet). The procedure: as §1
Experiment [6] has as its target T2, canine IL-13 (canine, UniProt Q9N0W9 19-131, limits assumed, biotin-labeled in the Octet assay (site not stated)).
T2 sequence (looked up): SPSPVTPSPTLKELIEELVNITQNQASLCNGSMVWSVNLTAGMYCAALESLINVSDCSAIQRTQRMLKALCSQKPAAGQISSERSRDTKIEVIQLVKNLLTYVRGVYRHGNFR
Briefly: cell-based or functional assay.

Experiment [7] addresses T2, canine IL-13. Briefly: cell-based or functional assay. The source holds these as a separate data set.
For experiment [8], the target named is T2, canine IL-13. Briefly: BLI (Octet HTX), biotin-cIL-13 on SA biosensors, fusion protein in solution, 1:1 fit. The procedure: as §1
In experiment [9] the target is T2, canine IL-13. The experiment in a line: BLI (Octet); summary table, rounded from Table 4.
Experiment [10] has as its target T2, canine IL-13. The experiment in a line: BLI (Octet). The procedure:
as §1

B1: cIL-4Rα-cIgGB-Fc (Fc fusion)
chain: VKVLHEPSCFSDYISTSVCQWKMDHPTNCSAELRLSYQLDFMGSENHTCVPENREDSVCVCSMPIDDAVEADVYQLDLWAGQQLLWSGSFQPSKHVKPRTPGNLTVHPNISHTWLLMWTNPYPTENHLHSELTYMVNVSNDNDPEDFKVYNVTYMGPTLRLAASTLKSGASYSARVRAWAQTYNSTWSDWSPSTTWLNYYEPWEQHLPPKRENGRVPRPPDCPKCPAPEMLGGPSVFIFPPKPKDTLLIARTPEVTCVVVDLDPEDPEVQISWFVDGKQMQTAKTQPREEQFNGTYRVVSVLPIGHQDWLKGKQFTCKVNNKALPSPIERTISKARGQAHQPSVYVLPPSREELSKNTVSLTCLIKDFFPPDIDVEWQSNGQQEPESKYRTTPPQLDEDGSYFLYSKLSVDKSRWQRGDTFICAVMHEALHNHYTQESLSHSPGK
notes: Homodimer held by hinge disulfides; made in CHO cells, purified on protein A; also called cIL-4Rα-cFc; cIL4Rα-cFc
Turning to B1, in experiment [1], the “IL-4 (IC50), summary table” value is 0.08 nM. In experiment [2], this molecule had a Kd of 0.001 nM. In experiment [3], the Kd is 0.00118 nM, the koff was 8.3e-07 s⁻¹ and the kon came to 703000 M⁻¹ s⁻¹. For the same molecule, in experiment [4], the “IL-4 IC50 (inhibition of cIL-4 mediated STAT6 phosphorylation in DH82 cells)” value was 0.084 nM.

B2: cIL-4Rα-cIgGB-Fc-YTE (Fc fusion)
chain: B1 chain with L248Y, A250T, T252E
notes: Homodimer; also called cIL-4Rα-cFc-YTE
Consider B2, for which, in [3], the Kd stood at 0.0111 nM, the koff amounted to 9.23e-06 s⁻¹ and the kon was 830000 M⁻¹ s⁻¹. Besides, in experiment [5], the “fold change of KD against the unmodified cIL-4Rα-cFc homodimer” value was approximately 10 fold.

B3: cIL-4Rα-cIgGB-Fc-H (Fc fusion)
chain: B1 chain with N432H
notes: Homodimer; also called cIL-4Rα-cFc-H; cIL-4Rα-cFc-NH
In [3], B3 came in with a Kd of 0.126 nM, a koff of 9.88e-05 s⁻¹ and a kon of 785000 M⁻¹ s⁻¹. Also, in experiment [5], the “fold change of KD against the unmodified cIL-4Rα-cFc homodimer” value is approximately 100 fold.

B4: cIL-13Rα1-cIgGB-Fc (Fc fusion)
chain: GGVAAPTETQPPVTNLSVSVENLCTVIWTWDPPEGASPNCTLRYFSHFDNKQDKKIAPETHRSKEVPLNERICLQVGSQCSTNESDNPSILVEKCTPPPEGDPESAVTELQCVWHNLSYMKCTWLPGRNTSPDTNYTLYYWHSSLGKILQCEDIYREGQHIGCSFALTNLKDSSFEQHSVQIVVKDNAGKIRPSFNIVPLTSHVKPDPPHIKRLFFQNGNLYVQWKNPQNFYSRCLSYQVEVNNSQTETNDIFYVEEAKCQNSEFEGNLEGTICFMVPGVLPDTLNTVRIRVRTNKLCYEDDKLWSNWSQAMSIGENTDPTPKRENGRVPRPPDCPKCPAPEMLGGPSVFIFPPKPKDTLLIARTPEVTCVVVDLDPEDPEVQISWFVDGKQMQTAKTQPREEQFNGTYRVVSVLPIGHQDWLKGKQFTCKVNNKALPSPIERTISKARGQAHQPSVYVLPPSREELSKNTVSLTCLIKDFFPPDIDVEWQSNGQQEPESKYRTTPPQLDEDGSYFLYSKLSVDKSRWQRGDTFICAVMHEALHNHYTQESLSHSPGK
notes: Homodimer; also called cIL-13Rα1-cFc; cIL13Rα1-cFc
For the molecule B4, in experiment [6], the “IL-13 (IC50), summary table” value turned out to be 20 nM. Besides, the “IL-13 IC50 (inhibition of cIL-13 mediated STAT6 phosphorylation in DH82 cells)” value in [7] was 18.4 nM. Further, in experiment [8], binding was characterised by a dissociation constant (Kd) of 5.37 nM, the koff is 0.000312 s⁻¹ and the kon turned out to be 58000 M⁻¹ s⁻¹. This molecule returned a Kd in [9] of 5 nM.

B5: cIL-13Rα1-cIgGB-Fc-YTE (Fc fusion)
chain: B4 chain with L361Y, A363T, T365E
notes: Homodimer; also called cIL-13Rα1-cFc-YTE
In experiment [8], B5 returned a Kd of 16.5 nM, an off-rate constant (koff) of 0.0011 s⁻¹ and a kon of 66500 M⁻¹ s⁻¹. Further, in experiment [10], the “fold decrease in affinity against unmodified cIL-13Rα1-cFc” value is approximately 4 fold.

B6: cIL-13Rα2-cIgGB-Fc-YD (Fc fusion)
chain: SMLSNAEIKVNPPQDFEIVDPGYLGYLSLQWQPPLFPDNFKECTIEYELKYRNIDSENWKTIITKNLHYKDGFDLNKGIEAKINTLLPAQCTNGSEVRSSWAETTYWTSPQGNRETKIQDMDCVYYNWQYLVCSWKPGMGVHFDTNYQLFYWYEGLDHSAECTDYIKVNGKNMGCRFPYLESSDYKDFYICVNGSSESQPIRPSYFIFQLQNIVKPMPPDYLSLTVKNSEEINLKWNMPKGPIPAKCFIYEIEFTEDGTTWVTTTVENEIQITRTSNESQKLCFLVRSKVNIYCSDDGIWSEWSDEQCWKGDIWKETPKRENGRVPRPPDCPKCPAPEMLGGPSVFIFPPKPKDTLYIARDPEVTCVVVDLDPEDPEVQISWFVDGKQMQTAKTQPREEQFNGTYRVVSVLPIGHQDWLKGKQFTCKVNNKALPSPIERTISKARGQAHQPSVYVLPPSREELSKNTVSLTCLIKDFFPPDIDVEWQSNGQQEPESKYRTTPPQLDEDGSYFLYSKLSVDKSRWQRGDTFICAVMHEALHNHYTQESLSHSPGK
notes: Homodimer; also called cIL-13Rα2-cFc-YD
In [8], B6 returned a dissociation constant Kd of 0.00044 nM, a koff of 5.07e-07 s⁻¹ and a kon of 1.15e+06 M⁻¹ s⁻¹. Also, the “fold decrease of KD against unmodified cIL-13Rα2-cFc” value in experiment [10] was approximately 2 fold.

B7: cIL-13Rα2-cIgGB-Fc-YTE (Fc fusion)
chain: B6 chain with A359T, D361E
notes: Homodimer; also called cIL-13Rα2-cFc-YTE
In experiment [8], B7 showed a Kd of 0.000432 nM, a koff of 5.04e-07 s⁻¹ and a kon of 1.17e+06 M⁻¹ s⁻¹. The “fold decrease of KD against unmodified cIL-13Rα2-cFc” value in experiment [10] is approximately 2 fold.

B8: cIL-13Rα2-cIgGB-Fc (Fc fusion)
chain: B6 chain with Y357L, D361T
notes: Homodimer; also called cIL-13Rα2-cFc; cIL13Rα2-cFc
For the molecule B8, the “IL-13 (IC50), summary table” value in [6] amounted to 0.2 nM. For the same molecule, the “IL-13 IC50 (inhibition of cIL-13 mediated STAT6 phosphorylation in DH82 cells)” value in [7] stood at 0.165 nM. In experiment [8], this molecule came in with a Kd of 0.000744 nM, a koff of 7.45e-07 s⁻¹ and a kon of 1e+06 M⁻¹ s⁻¹. Moreover, the Kd in experiment [9] is 0.0007 nM.
